Bounds are passed on as bounds.

One test has as its target HLA-A*02:17. In words: IEDB peptide-MHC binding, purified MHC/competitive/radioactivity; filed as Kd, often an IC50 or EC50 that approximates it; ≥ and ≤ were set here for values at or beyond the usual limits of such assays.
The target of test [1] is HLA-A*02:01. Described as above.
Test [2] concerns the target HLA-A*01:01. Described as above. The following applies: source organism: Dengue virus 2 Jamaica/1409/1983.
Another test addresses HLA-A*02:06. The test is described as above.
The target of another test is HLA-A*68:02. Described as above.
The target in a further test is HLA-A*02:03. The description is as above.
For test [3], the target named is HLA-A*03:01. Put plainly: IEDB peptide-MHC binding, purified MHC/competitive/fluorescence; filed as Kd, often an IC50 or EC50 that approximates it; ≥ and ≤ were set here for values at or beyond the usual limits of such assays.
Test [4] addresses HLA-A*02:01. In words: IEDB peptide-MHC binding, purified MHC/direct/fluorescence; filed as Kd, often an IC50 or EC50 that approximates it; ≥ and ≤ were set here for values at or beyond the usual limits of such assays.
For another test, the target named is HLA-A*02:12. Described as above. Particulars: source organism: Rift Valley fever virus.
Another test has as its target HLA-A*69:01. The test is described as above.
The target in test [5] is HLA-B*15:01. The description is as above.
Test [6] has as its target HLA-A*01:01. Described as above.
For test [7], the target named is HLA-A*03:01. The test is described as above.
In another test the target is HLA-A*11:01. The description is as above.
The target in a further test is HLA-A*31:01. Described as above.
The target in test [8] is HLA-B*08:01. Described as above.
Another test deals with HLA-B*18:01. The description is as above. The following applies: source organism: Mycobacterium tuberculosis str. Haarlem.
For another test, the target named is HLA-B*27:05. Described as above.
The target in the next test is HLA-B*40:01. The description is as above.
For the next test, the target named is HLA-B*44:02. The test is described as above.
Another test concerns the target HLA-B*46:01. The test is described as above.
Another test concerns the target HLA-B*57:01. The description is as above. The following applies: source organism: Mycobacterium tuberculosis str. Haarlem.
A further test concerns the target HLA-A*26:01. Described as above. The following applies: source organism: Escherichia coli O157:H7.
Another test deals with HLA-B*07:02. Described as above. Particulars: source organism: Escherichia coli O157:H7.
A further test addresses HLA-B*58:01. The description is as above. The following applies: source organism: Escherichia coli O157:H7.
Test [9] concerns the target HLA-B*08:01. Put plainly: IEDB peptide-MHC binding, purified MHC/competitive/radioactivity; filed as Kd, often an IC50 or EC50 that approximates it; ≥ and ≤ were set here for values at or beyond the usual limits of such assays. Particulars: source organism: Dengue virus 1 Brazil/97-11/1997.
The target in test [10] is HLA-B*15:01. The test is described as above. The following applies: source organism: Dengue virus 1 Brazil/97-11/1997.
The mark [11] stands for this setting: source organism: Dengue virus 2 Jamaica/1409/1983.
Where [12] appears, read: source organism: Dengue virus 3 China/80-2/1980.
[13] abbreviates: source organism: Dengue virus 4 Philippines/H241/1956.
The mark [14] stands for this setting: source organism: Dengue virus 3 Sri Lanka/1266/2000.
Setting [15] is: source organism: Dengue virus 3 Martinique/1243/1999.
Where [16] appears, read: source organism: Rift Valley fever virus.
The mark [17] stands for this setting: source organism: Dengue virus 2 Puerto Rico/PR159-S1/1969.
[18] abbreviates: source organism: Mycobacterium tuberculosis str. Haarlem.
Setting [19] is: source organism: Dengue virus 1 Singapore/S275/1990.
[20] abbreviates: source organism: Dengue virus 1 Brazil/97-11/1997.
Where [21] appears, read: source organism: Escherichia coli O157:H7.
Setting [22] is: source organism: Escherichia coli.

VILAGPMPV: in the test with HLA-A*02:17 (setting [11]), the equilibrium dissociation constant (Kd) came out at 1360 nM.

Regarding YLEFEALGFL, the dissociation constant (Kd) with HLA-A*02:01 [1] (setting [12]) is 77.1 nM; in the test with HLA-A*02:17 (setting [12]), 45.3 nM.

Turning to LTAALLLLV, the Kd in the test with HLA-A*01:01 [2] is not below 42.9 µM; with HLA-A*02:01 [1] (setting [11]), 5760 nM; with HLA-A*02:06 (setting [11]), 3.73 nM; in the test with HLA-A*02:17 (setting [11]), not below 41700 nM; with HLA-A*68:02 (setting [11]), 5.36 nM.

Turning to ILIGFLVLWI, the dissociation constant Kd with HLA-A*02:01 [1] (setting [13]) stood at 97.1 nM; with HLA-A*02:17 (setting [13]), 2990 nM.

Regarding TSMAMTCIAV, the Kd with HLA-A*02:01 [1] (setting [13]) was 12.3 nM; with HLA-A*02:06 (setting [13]), 9.2 nM; with HLA-A*02:17 (setting [13]), 62.5 nM; with HLA-A*68:02 (setting [13]), 1.66 nM.

MIAGVFFTFV: the Kd in the test with HLA-A*02:01 [1] (setting [14]) was 12.6 nM; with HLA-A*02:03 (setting [15]), not above 0.1 nM; in the test with HLA-A*02:06 (setting [15]) it was 1.02 nM; with HLA-A*02:17 (setting [14]), 83 nM; with HLA-A*68:02 (setting [15]), 2.85 nM.

With LLLLTLLATV, the equilibrium dissociation constant (Kd) in the test with HLA-A*02:01 [1] (setting [11]) was determined as 64.6 nM; in the test with HLA-A*02:03 (setting [11]), 1.37 nM; in the test with HLA-A*02:06 (setting [11]), 23.8 nM; with HLA-A*02:17 (setting [11]), 54.4 nM.

On to LLLLGLMILL, for which the Kd with HLA-A*02:01 [1] (setting [12]) was 11.7 nM; with HLA-A*02:06 (setting [15]) it was 21.5 nM; in the test with HLA-A*02:17 (setting [12]) it was 94.9 nM.

Take KMARAGLGH: the dissociation constant Kd with HLA-A*03:01 [3] (source organism: Escherichia coli O157:H7 str. EDL933) amounted to 25.1 nM.

For the sequence YLKEACNHA, the dissociation constant (Kd) in the test with HLA-A*02:01 [4] (setting [16]) is 243 nM; with HLA-A*02:12 it was 52 nM; with HLA-A*69:01 (setting [16]), 0.473 µM; in the test with HLA-B*15:01 [5] (setting [16]), 652 nM.

Turning to KLTDWDFVV, the equilibrium dissociation constant (Kd) with HLA-A*02:01 [1] (source organism: dengue virus type 4) worked out at 61 nM; with HLA-A*02:06 (setting [13]), 2.33 nM; with HLA-A*02:17 (setting [13]) it was 744 nM.

Turning to TLYAVATTFI, the figures for the dissociation constant Kd in the test with HLA-A*02:01 [1] (setting [17]), with HLA-A*02:03 (source organism: Dengue virus 2 Peru/IQT2913/1996) and in the test with HLA-A*02:17 (setting [17]) were 86.3 nM, 13.7 nM and 1300 nM, respectively.

On to HMIAGVFFT, for which the dissociation constant (Kd) worked out at 9.01 nM with HLA-A*02:01 [1] (setting [14]) and 1400 nM with HLA-A*02:17 (setting [14]).

As to IMANRAQVL, the dissociation constant (Kd) was not below 20 µM with HLA-A*01:01 [6] (setting [18]); not below 20 µM with HLA-A*03:01 [7] (setting [18]); not below 20 µM in the test with HLA-A*11:01 (setting [18]); not below 20000 nM with HLA-A*31:01 (setting [18]); not below 20 µM with HLA-A*69:01 (setting [18]); 332 nM with HLA-B*08:01 [8] (setting [18]). Also, the Kd with HLA-B*18:01, with HLA-B*27:05 (setting [18]), with HLA-B*40:01 (setting [18]), with HLA-B*44:02 (setting [18]), in the test with HLA-B*46:01 (setting [18]) and with HLA-B*57:01 was not below 20 µM each time.

With QVMLLVLCAV, the dissociation constant Kd is 146 nM with HLA-A*02:01 [1] (setting [12]), 604 nM in the test with HLA-A*02:03 (setting [15]), 11.8 nM in the test with HLA-A*02:06 (setting [15]) and not below 35100 nM with HLA-A*02:17 (setting [12]).

For the sequence ILLKATLLAV, the Kd was 2.24 nM with HLA-A*02:01 [1] (setting [19]), 2.21 nM with HLA-A*02:03 (setting [20]), 18.1 nM with HLA-A*02:06 (setting [20]) and 318 nM with HLA-A*02:17 (setting [19]).

Take TAAAWYLWEV: the Kd was determined as 10.3 nM with HLA-A*02:01 [1] (setting [11]), 1.28 nM with HLA-A*02:06 (setting [11]), 1020 nM in the test with HLA-A*02:17 (setting [11]) and 4.09 nM in the test with HLA-A*68:02 (setting [11]).

In the test with HLA-A*03:01 [3] (source organism: Escherichia coli O139:H28 str. E24377A), ALALFDLLK came in with a Kd of 56.7 nM.

With AQRPAKYSY, the dissociation constant Kd is not below 20 µM with HLA-A*01:01 [6] (setting [21]); not below 20000 nM in the test with HLA-A*02:01 [4] (setting [21]); not below 20 µM in the test with HLA-A*03:01 [7] (setting [21]); not below 20 µM in the test with HLA-A*11:01 (setting [21]); not below 20 µM with HLA-A*26:01; 622 nM in the test with HLA-A*31:01 (setting [22]). Besides, the dissociation constant (Kd) with HLA-A*69:01 (setting [21]) is not below 20 µM; with HLA-B*07:02, not below 20 µM; with HLA-B*08:01 [8] (setting [21]) it was not below 20000 nM; with HLA-B*15:01 [5] (setting [22]), 133 nM; in the test with HLA-B*27:05 (setting [21]) it was not below 20 µM; in the test with HLA-B*40:01 (setting [21]), not below 20 µM. Also, the dissociation constant Kd with HLA-B*44:02 (setting [21]), with HLA-B*46:01 (setting [21]) and in the test with HLA-B*58:01 was not below 20 µM throughout.

For the sequence SIILEFFLIV, the Kd with HLA-A*02:01 [1] (setting [11]) was found to be 29.9 nM; in the test with HLA-A*02:06 (setting [11]), 43.7 nM; in the test with HLA-A*02:17 (setting [11]), 4020 nM.

LLANILSEH registered a Kd with HLA-A*03:01 [3] (source organism: Vibrio cholerae 2740-80) of 525 nM.

As to FLDLPLPWAA, the figures for the Kd in the test with HLA-A*02:01 [1] (setting [13]), with HLA-A*02:06 (setting [13]) and with HLA-A*02:17 (setting [13]) were 4.19 nM, 59.3 nM and 499 nM, respectively.

For the sequence VMAVGLVSI, the results for the Kd with HLA-A*02:03 (setting [15]) and with HLA-A*02:17 (setting [12]) were 1.11 nM and 3200 nM, respectively.

In the case of LLMLVTPSM, the Kd with HLA-A*02:01 [1] (setting [19]) was 7.86 nM; with HLA-A*02:17 (setting [19]), 24.3 nM; with HLA-B*08:01 [9], 1080 nM; with HLA-B*15:01 [10], 2.26 nM.

Values taken from the Immune Epitope Database (IEDB).
